Source: publication PMC12627087, “mRNA delivery of circumsporozoite protein epitope-based malaria vaccines induces protection in a mouse model” (NPJ Vaccines, 2025)

B1: J2 24mer (other)
chain: KLKQPADGNPDPNANPNVDPNANPNVDPLSKDIIKLLNEQVNKEMQSSNLYMSMSSWCYTHSLDGAGLFLFDHAAEEYEHAKKLIIFLNENNVPVNLTSISAPEHNFTGLTQIFQKAYEHEQNISESINNITDHAIKSKDHATFNFLQWYVAEQHEEEVLFKDILDKIELIGNENHGLYLADQYVKGIAKSRKS
modifications: glycosylated (engineered glycosylation sites)
notes: Plasmodium falciparum circumsporozoite protein (PfCSP), strain 3D7; J2, minimal junction peptide beginning with Region I; Self-assembling ferritin nanoparticle; cloned into pHLsec between the leader and a double stop codon (AgeI/KpnI); also called peptide J2-24mer; source: FreeStyle 293 F cells, transfected, purified (snowdrop lectin agarose, Superose 6 SEC); copies: 24
B2: J3R3 24mer (other)
chain: KLKQPADGNPDPNANPNVDPNANPNVDPNANPNVDPNANPNANPNANPLSKDIIKLLNEQVNKEMQSSNLYMSMSSWCYTHSLDGAGLFLFDHAAEEYEHAKKLIIFLNENNVPVNLTSISAPEHNFTGLTQIFQKAYEHEQNISESINNITDHAIKSKDHATFNFLQWYVAEQHEEEVLFKDILDKIELIGNENHGLYLADQYVKGIAKSRKS
modifications: glycosylated (engineered glycosylation sites)
notes: Plasmodium falciparum circumsporozoite protein (PfCSP), strain 3D7; J3R3, junctional peptide with three added NANP repeats; Self-assembling ferritin nanoparticle; cloned into pHLsec between the leader and a double stop codon (AgeI/KpnI); source: FreeStyle 293 F cells, transfected, purified (snowdrop lectin agarose, Superose 6 SEC); copies: 24
B3: (NANP)6 60mer (other)
chain: NANPNANPNANPNANPNANPNANPGSGNGTGGSMQIYEGKLTAEGLRFGIVASRANHALVDRLVEGAIDAIVRHGGREEDITLVRVCGSWEIPVAAGELARKENISAVIAIGVLCRGATPSFDYIASEVSKGLADLSLELRKPITFGVITADTLEQAIEAAGTCHGNKGWEAALCAIEMANLFKSLRGGSNGTGGSGGSNGT
modifications: glycosylated (engineered glycosylation sites)
notes: Plasmodium falciparum circumsporozoite protein (PfCSP), strain 3D7; (NANP)6, 24-residue NANP repeat peptide; linker between the peptide and lumazine synthase; C-terminal extension with two added glycosylation sites; Self-assembling lumazine synthase nanoparticle; cloned into pHLsec between the leader and a double stop codon (AgeI/KpnI); also called (NANP)6 peptide 60mer; source: FreeStyle 293 F …
B4: J3R3 60mer (other)
chain: KLKQPADGNPDPNANPNVDPNANPNVDPNANPNVDPNANPNANPNANPGSGNGTGGSMQIYEGKLTAEGLRFGIVASRANHALVDRLVEGAIDAIVRHGGREEDITLVRVCGSWEIPVAAGELARKENISAVIAIGVLCRGATPSFDYIASEVSKGLADLSLELRKPITFGVITADTLEQAIEAAGTCHGNKGWEAALCAIEMANLFKSLRGGSNGTGGSGGSNGT
modifications: glycosylated (engineered glycosylation sites)
notes: Plasmodium falciparum circumsporozoite protein (PfCSP), strain 3D7; J3R3, junctional peptide with three added NANP repeats; linker between the peptide and lumazine synthase; C-terminal extension with two added glycosylation sites; Self-assembling lumazine synthase nanoparticle; cloned into pHLsec between the leader and a double stop codon (AgeI/KpnI); source: FreeStyle 293 F cells, transfected, …
B5: P1 60mer (other)
chain: YGSSSNTRVLNELNYGSGNGTGGSMQIYEGKLTAEGLRFGIVASRANHALVDRLVEGAIDAIVRHGGREEDITLVRVCGSWEIPVAAGELARKENISAVIAIGVLCRGATPSFDYIASEVSKGLADLSLELRKPITFGVITADTLEQAIEAAGTCHGNKGWEAALCAIEMANLFKSLRGGSNGTGGSGGSNGT
modifications: glycosylated (engineered glycosylation sites)
notes: Plasmodium falciparum circumsporozoite protein (PfCSP), strain 3D7; linker between the peptide and lumazine synthase; C-terminal extension with two added glycosylation sites; Self-assembling lumazine synthase nanoparticle; cloned into pHLsec between the leader and a double stop codon (AgeI/KpnI); source: FreeStyle 293 F cells, transfected, purified (snowdrop lectin agarose, Superose 6 SEC); …
B6: P9 24mer (other)
chain: KQENWYSLKKNSRSLLSKDIIKLLNEQVNKEMQSSNLYMSMSSWCYTHSLDGAGLFLFDHAAEEYEHAKKLIIFLNENNVPVNLTSISAPEHNFTGLTQIFQKAYEHEQNISESINNITDHAIKSKDHATFNFLQWYVAEQHEEEVLFKDILDKIELIGNENHGLYLADQYVKGIAKSRKS
modifications: glycosylated (engineered glycosylation sites)
notes: Plasmodium falciparum circumsporozoite protein (PfCSP), strain 3D7; Self-assembling ferritin nanoparticle; cloned into pHLsec between the leader and a double stop codon (AgeI/KpnI); source: FreeStyle 293 F cells, transfected, purified (snowdrop lectin agarose, Superose 6 SEC); copies: 24
B7: P2 24mer (other)
chain: SNTRVLNELNYDNAGLSKDIIKLLNEQVNKEMQSSNLYMSMSSWCYTHSLDGAGLFLFDHAAEEYEHAKKLIIFLNENNVPVNLTSISAPEHNFTGLTQIFQKAYEHEQNISESINNITDHAIKSKDHATFNFLQWYVAEQHEEEVLFKDILDKIELIGNENHGLYLADQYVKGIAKSRKS
modifications: glycosylated (engineered glycosylation sites)
notes: as for B6
B8: P1 24mer (other)
chain: YGSSSNTRVLNELNYLSKDIIKLLNEQVNKEMQSSNLYMSMSSWCYTHSLDGAGLFLFDHAAEEYEHAKKLIIFLNENNVPVNLTSISAPEHNFTGLTQIFQKAYEHEQNISESINNITDHAIKSKDHATFNFLQWYVAEQHEEEVLFKDILDKIELIGNENHGLYLADQYVKGIAKSRKS
modifications: glycosylated (engineered glycosylation sites)
notes: as for B6
B9: J2 60mer (other)
chain: KLKQPADGNPDPNANPNVDPNANPNVDPGSGNGTGGSMQIYEGKLTAEGLRFGIVASRANHALVDRLVEGAIDAIVRHGGREEDITLVRVCGSWEIPVAAGELARKENISAVIAIGVLCRGATPSFDYIASEVSKGLADLSLELRKPITFGVITADTLEQAIEAAGTCHGNKGWEAALCAIEMANLFKSLRGGSNGTGGSGGSNGT
modifications: glycosylated (engineered glycosylation sites)
notes: Plasmodium falciparum circumsporozoite protein (PfCSP), strain 3D7; J2, minimal junction peptide beginning with Region I; linker between the peptide and lumazine synthase; C-terminal extension with two added glycosylation sites; Self-assembling lumazine synthase nanoparticle; cloned into pHLsec between the leader and a double stop codon (AgeI/KpnI); also called peptide J2-60mer; short junctional …
B10: (NANP)6 24mer (other)
chain: NANPNANPNANPNANPNANPNANPLSKDIIKLLNEQVNKEMQSSNLYMSMSSWCYTHSLDGAGLFLFDHAAEEYEHAKKLIIFLNENNVPVNLTSISAPEHNFTGLTQIFQKAYEHEQNISESINNITDHAIKSKDHATFNFLQWYVAEQHEEEVLFKDILDKIELIGNENHGLYLADQYVKGIAKSRKS
modifications: glycosylated (engineered glycosylation sites)
notes: Plasmodium falciparum circumsporozoite protein (PfCSP), strain 3D7; (NANP)6, 24-residue NANP repeat peptide; Self-assembling ferritin nanoparticle; cloned into pHLsec between the leader and a double stop codon (AgeI/KpnI); source: FreeStyle 293 F cells, transfected, purified (snowdrop lectin agarose, Superose 6 SEC); copies: 24
B11: P2 60mer (other)
chain: SNTRVLNELNYDNAGGSGNGTGGSMQIYEGKLTAEGLRFGIVASRANHALVDRLVEGAIDAIVRHGGREEDITLVRVCGSWEIPVAAGELARKENISAVIAIGVLCRGATPSFDYIASEVSKGLADLSLELRKPITFGVITADTLEQAIEAAGTCHGNKGWEAALCAIEMANLFKSLRGGSNGTGGSGGSNGT
modifications: glycosylated (engineered glycosylation sites)
notes: as for B5

Target: the molecule itself
Assay: SEC + SEC-MALS + other: negative stain electron microscopy; self-assembly of the protomer into the nanoparticle; Superose 6 10/300 at 0.5 ml/min with DAWN HELEOS II and Optilab T-rEX detectors, glycan mass corrected by protein-conjugate analysis; nsEM at 0.1 mg/ml in HBS, uranyl formate
B1: binds.
B2: binds.
B3: binds.
B4: binds.
B5: binds.
B6: binds.
B7: binds.
B8: binds.
B9: binds.
B10: binds.
B11: binds.
